Reference: US8765674B2, “Methods useful in the treatment of bone resorption diseases” (NPS Pharmaceuticals, Inc., priority 1997, dated 2014)

B1: PTH: Parathyroid hormone, an 84 amino acid polypeptide normally secreted from the parathyroid glands (protein, UniProt P01270 32-115, looked up)
Parathyroid hormone: SVSEIQLMHNLGKHLNSMERVEWLRKKLQDVHNFVALGAPLAPRDAGSQRPRKKEDNVLVESHEKSLGEADKADVNVLTKAKSQ
B2: intact human PTH (1-84): intact human parathyroid hormone, full-length 84 amino acid polypeptide (protein, UniProt P01270 32-115, looked up)
Parathyroid hormone: B1 Parathyroid hormone

Columns and labels:
[1] = test system: patient with osteoporosis; conditions: during therapy with PTH, cited from earlier work
[2] = test system: Postmenopausal females with osteoporosis; test: Clinical study: PTH (1-84) given for one year, bone mineral density; type: in vivo, human; conditions: subcutaneous injection, 50 to 100 micrograms daily
Description: Postmenopausal females (n=172) with osteoporosis were given intact human PTH (1-84), as a subcutaneous injection, for one year in doses from 50 to 100 micrograms daily. It was shown that bone mineral density of the spine was increased in the lumbar spine, on the average by 8%. Increases in individual patients were considerably more than 10%. The changes of the femoral neck were smaller and ranged from 1 to 3%.

Molecule | activation frequency ([1]; calculated) | bone mineral density in the femoral neck [1] | increases of lumbar spine bone mineral density in individual patients [2] | increase of bone mineral density of the lumbar spine, on the average ([2]; n=172) [%]
B1 | doubled | largely unaffected | – | –
B2 | – | – | more than 10% | 8
